Data from patent EP4803098A1 (Shandong Boan Biotechnology Co., Ltd., dated 2025).
Read-outs that look alike come from different tables or passages of the source.

T1: GIPR on CHOK1-GIPR/GLP-1R cells (human, UniProt P48546 22-466)
T1 construct: whole, on cells; also called CHOK1-hGIPR cells
T1 sequence (looked up): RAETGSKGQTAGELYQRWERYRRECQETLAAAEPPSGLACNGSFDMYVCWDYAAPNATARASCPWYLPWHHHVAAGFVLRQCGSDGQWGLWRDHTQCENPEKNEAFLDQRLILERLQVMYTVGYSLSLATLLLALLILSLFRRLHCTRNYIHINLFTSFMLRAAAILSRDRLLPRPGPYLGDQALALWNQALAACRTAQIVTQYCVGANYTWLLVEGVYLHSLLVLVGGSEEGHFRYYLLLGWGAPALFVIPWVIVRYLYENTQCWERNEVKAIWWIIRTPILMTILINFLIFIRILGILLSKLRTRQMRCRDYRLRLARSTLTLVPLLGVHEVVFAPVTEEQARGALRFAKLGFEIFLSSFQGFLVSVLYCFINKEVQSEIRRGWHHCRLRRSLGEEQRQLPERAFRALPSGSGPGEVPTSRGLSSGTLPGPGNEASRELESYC

T2: hGIPR-His protein (human, UniProt P48546 22-138)
T2 chain: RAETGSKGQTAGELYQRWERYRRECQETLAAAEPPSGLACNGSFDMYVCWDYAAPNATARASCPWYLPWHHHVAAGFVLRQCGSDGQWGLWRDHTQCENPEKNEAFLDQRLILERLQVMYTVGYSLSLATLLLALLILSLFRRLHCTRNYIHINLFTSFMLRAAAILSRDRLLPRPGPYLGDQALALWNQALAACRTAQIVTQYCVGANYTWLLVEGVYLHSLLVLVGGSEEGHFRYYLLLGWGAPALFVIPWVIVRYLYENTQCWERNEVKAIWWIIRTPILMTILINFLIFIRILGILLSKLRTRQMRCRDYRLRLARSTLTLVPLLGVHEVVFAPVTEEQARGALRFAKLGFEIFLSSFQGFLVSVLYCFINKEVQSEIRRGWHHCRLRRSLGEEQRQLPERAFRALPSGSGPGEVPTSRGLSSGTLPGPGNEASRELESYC

T3: mGIPR-Fc protein (mouse, UniProt Q0P543 19-134, limits assumed)
T3 construct: also called mouse GIPR-Fc protein; not shown: Fc part
T3 sequence (looked up): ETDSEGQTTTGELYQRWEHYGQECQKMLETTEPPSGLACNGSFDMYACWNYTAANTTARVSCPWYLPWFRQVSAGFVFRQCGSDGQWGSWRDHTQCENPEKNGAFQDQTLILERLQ


Legend:
[1] = target: T1, GIPR on CHOK1-GIPR/GLP-1R cells; experiment: flow cytometry on CHOK1-GIPR/GLP-1R cells
hGIPR-His protein [2] = target: T2, hGIPR-His protein; experiment: BLI (Octet), antibody captured on FAB2G sensor, hGIPR-His in solution
mGIPR-Fc protein = target: T3, mGIPR-Fc protein; experiment: ELISA, mGIPR-Fc coated
[3] = target: T1, GIPR on CHOK1-GIPR/GLP-1R cells; experiment: cell-based or functional assay
hGIPR-His protein [4] = target: T2, hGIPR-His protein; experiment: BLI (Octet), antibody captured on FAB2G sensor, hGIPR-His in solution, 1:1 model
[5] = target: T1, GIPR on CHOK1-GIPR/GLP-1R cells; experiment: cell-based or functional assay; remark: listed apart in the source
[6] = target: T1, GIPR on CHOK1-GIPR/GLP-1R cells; experiment: flow cytometry on CHOK1-GIPR/GLP-1R cells (run with CE947)
[7] = target: T1, GIPR on CHOK1-GIPR/GLP-1R cells; experiment: flow cytometry on CHOK1-GIPR/GLP-1R cells (run with BA191)
[8] = target: T1, GIPR on CHOK1-GIPR/GLP-1R cells; experiment: flow cytometry on CHOK1-GIPR/GLP-1R cells (run with CE560)
[9] = target: T1, GIPR on CHOK1-GIPR/GLP-1R cells; experiment: flow cytometry on CHOK1-GIPR/GLP-1R cells (run with CA360)

Binder | EC50 [1] | Maximum binding value (RFU) [1] | Response (hGIPR-His protein [2]) | binding result (mGIPR-Fc protein) | IC50 (µg/mL), cAMP content [3] | Kd (hGIPR-His protein [4]) | IC50 (µg/mL), cAMP content [5] | EC50 [6] | EC50 [7] | EC50 [8] | EC50 [9]
CE560 (antibody, human IgG1, kappa, L234A L235A, V domains shown, also called GIPR antibody CE560) VH: EVQLVQSGAEVKKPGSSVKVSCKASGGTFNNYAISWVRQAPGQGLEWMGRIIPFLDIASYAQKFQGKVTITADKSTSTAYMELSSLRSEDTAVYYCAREVDWGWFDSWGQGTLVTVSS VL: IQMTQSPSSLSASVGDRVTITCRASQGISSYLAWYQQKPGKAPKLLIYAASTLQSGVPSRFSGSGSGTDFTLTISSLQPEDFATYYCQQLNSYPLTFGGGTKVEIKR | 0.206 µg/mL | 492000 RFU | 0.222 | no binding (tested: starting from 0.2 µg/mL) | 0.14 µg/mL | 2.63 nM | – | – | – | – | –
CA360 (antibody, human IgG1, kappa, L234A L235A, V domains shown, also called GIPR antibody CA360) VH: EVQLVQSGAEVKKPGSSVKVSCKASGGTFSGYPINWVRQAPGQGLEWMGRIIPIPGIPNYAQKFQDRVTITADKFANTAYMELSSLRSEDTAVYYCARDPLGPYVFDIWGQGTMVTVSS VL: not shown | 0.328 µg/mL | 281000 RFU | 0.246 | – | 0.2 µg/mL | 3.07 nM | – | – | – | – | –
2G10 (antibody, V domains shown, also called control group 2G10) VH: not shown VL: EIVMTQSPATLSVSPGERATLSCRASQSVSSNLAWYQQKPGQAPRLLIYGAATRATGIPARVSGSGSGTEFTLTISSLQSEDFAVYYCQQYNNWPLTFGGGTKVEIKR | – | – | 0.142 | – | 0.21 µg/mL | 12.6 nM | 0.3 µg/mL | 0.213 µg/mL | 0.151 µg/mL | 0.263 µg/mL | 0.213 µg/mL
BA191 (antibody, human IgG1, kappa, L234A L235A, V domains shown, also called GIPR antibody BA191) VH: EVQLVQSGAEVKKPGSSVKVSCKASGGTFSTFSSYAISWVRQAPGQGLEWMGRIIPILGIGNNAQKFQGRVTITADKSTSTAYMELSSLRSEDTAVYYCAREKDWGHFDYWGQGTLVTVSS VL: DIQMTQSPSSLSASVGDRVTITCRASQGISNYLAWFQQKPGKAPKSLIYAASSLQSGVPSKFSGSGSGTDFTLTISSLQPEDFATYYCQQYNSYPITFGQGTRLEIKR | 0.091 µg/mL | 17600 RFU | 0.246 | no binding (tested: starting from 0.2 µg/mL) | – | 4.28 nM | 0.04 µg/mL | – | – | – | –
CE947 (antibody, human IgG1, kappa, L234A L235A, V domains shown, also called GIPR antibody CE947) VH: EVQLVQSGAEVKKPGSSVKVSCKASGGTFNNYAISWVRQAPGQGLEWMGRIIPFLDIASNAQKFQGKVTITADKSTSTAYMELSSLRSEDTAVYYCAREVDWGWFDSWGQGTLVTVSS VL: DIQMTQSPSSLSASVGDRVTITCRASQGISNYLAWFQQKPGKAPKSLIYAASSLQSGVPSRFSGSGSGTDFTLTISNLQPEDFATYYCLQYYDYPLTFGGGTKLEIKR | 0.131 µg/mL | 311000 RFU | 0.19 | no binding (tested: starting from 0.2 µg/mL) | – | 1.13 nM | 0.05 µg/mL | – | – | – | –
